The source of these data is the RNAGym collection of RNA variant scans (doi:10.1093/molbev/msab373).

The labels stand for the following.
B1: Azoarcus group I ribozyme (parent)
chain: GUGCCUUGCGCCGGGAAACCACGCAAGGGAUGGUGUCAAAUUCGGCGAAACCUAAGCGCCCGCCCGGGCGUAUGGCAACGCCGAGCCAAGCUUCGGCGCCUGCGCCGAUGAAGGUGUAGAGACUAGACGGCACCCACCUAAGGCAAACGCUAUGGUGAAGGCAUAGUCCAGGGAGUGGCGAAAGUCACACAAACCGG

Variants of B1 are the subject of the series. The series is described as follows: reverse-splicing fitness (ratio to wild type); higher = more active; in vitro selection; Mg2+ level not given. Summed up:
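An in vitro group I ribozyme library with randomized positions was T7-transcribed and gel-purified. In triplicate, 10 pmol RNA in EPPS pH 7.5 was reacted with 50 pmoles of a 30-nt RNA substrate for 1 h at 37 °C across several added MgCl2 levels (1–48 mM), then stopped with EDTA. Products were reverse transcribed from a substrate-complementary primer, PCR-amplified and sequenced (HiSeq 4000). Fitness is a variant's read proportion after selection over that before, normalised to wild type.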
Turning to A111G A120C A145G C169G U176C, the reverse-splicing fitness came out at 0.0194.
Next, A111G A120C A145G C169G U176G: 0.00387; A111G A120C A145U C169U U176C: 0.0719; A111G A120C A145U C169U U176G: 0.00772.
On to A111G A120C A145U C169U U176A, for which the reverse-splicing fitness was 0.0589.
Next, A111G A120C A145U C150A C169G U176C: 0.011; A111G A120C A145U C150A C169G U176A: 0.0144; A111G A120C A145U C150A C169G U176G: 0.00393.
Next, A111G A120G A145C C150G C169A: 0.0226; A111G A120G A145C C150G C169G: 0.0368; A111G A120G A145C C150G C169U: 0.0356.
Next, A111G A120C A145U C150U U176A: 0.365; A111G A120C A145U C150U U176G: 0.0965.
For A111G A120C A145U C150U U176C, the reverse-splicing fitness was 0.357.
Next, A111G A120G A145C C150G C169G U176G: 0.00389; A111G A120G A145C C150G C169G U176A: 0.0101; A111G A120G A145C C150G C169G U176C: 0.00653.
In the case of A111G A120C C150U C169U it was 0.161; in that of A111G A120C C150U C169A, 0.012.
Consider A111G A120C C150U C169G, for which the reverse-splicing fitness stood at 0.0131.
As for A111G A120G A145G C169G U176C, the reverse-splicing fitness worked out at 0.134.
Next, A111G A120G A145G C169G U176A: 0.0887.
In the case of A111G A120G A145G C169G U176G it was 0.00622.
Turning to A111G A120G A145C C150U U176G, the reverse-splicing fitness was 0.00705.
Next, A111G A120G A145C C150U U176A: 0.0317.
In the case of A111G A120G A145C C150U U176C it was 0.038; in that of A111G A120C A145U, 0.745; in that of A111G A120G A145G C150G C169U U176A, 0.012.
Next, A111G A120G A145G C150G C169U U176C: 0.0152; A111G A120G A145G C150G C169U U176G: 0.00654.
In the case of A111G A120C C150A U176A, the reverse-splicing fitness came out at 0.0735.
Next, A111G A120C C150A U176G: 0.0222.
Consider A111G A120C C150A U176C, for which the reverse-splicing fitness came out at 0.0799.
With A111G A120C A145G C150G C169G U176G, the reverse-splicing fitness was 0.00503.
Next, A111G A120C A145G C150G C169G U176C: 0.00529; A111G A120C A145G C150G C169G U176A: 0.00741; A111G A120C A145U C150A C169A U176C: 0.00676.
In the case of A111G A120C A145U C150A C169A U176A it was 0.0107.
Next, A111G A120C A145U C150A C169A U176G: 0.00401.
On to A111G A120C A145U C150U C169G U176C, for which the reverse-splicing fitness was 0.0106.
Regarding A111G A120C A145U C150U C169G U176A, the reverse-splicing fitness worked out at 0.014.
Next, A111G A120C A145U C150U C169G U176G: 0.00446; A111G A120G A145C C150G C169A U176A: 0.00837; A111G A120G A145C C150G C169A U176C: 0.00969.
In the case of A111G A120G A145C C150G C169A U176G it was 0.00453.
In the case of A111G A120C C150A C169U U176C it was 0.022.
For the variant A111G A120C C150A C169U U176A, the reverse-splicing fitness was 0.0231.
With A111G A120C C150A C169U U176G, the reverse-splicing fitness was found to be 0.00616.
In the case of A111G A120G A145G C169A U176G it was 0.00474; in that of A111G A120G A145G C169A U176A, 0.0489; in that of A111G A120G A145G C169A U176C, 0.0746.
In the case of A111G A120C C169A U176G it was 0.00421; in that of A111G A120C C169A U176C, 0.0167.
Next, A111G A120C C169A U176A: 0.0147; A111G A120G A145C C150U C169A: 0.0431.
In the case of A111G A120G A145C C150U C169U, the reverse-splicing fitness came to 0.0714.
In the case of A111G A120G A145C C150U C169G it was 0.088; in that of A111G A120C A145G C150U C169U U176G, 0.00537.
In the case of A111G A120C A145G C150U C169U U176C it was 0.0607.
Next, A111G A120C A145G C150U C169U U176A: 0.0456; A111G A120G A145U C150A C169A: 0.018; A111G A120G A145U C150A C169U: 0.0268.
Regarding A111G A120G A145U C150A C169G, the reverse-splicing fitness came out at 0.0305.
In the case of A111G A120C A145U C150G U176G it was 0.00444; in that of A111G A120C A145U C150G U176A, 0.0189.
In the case of A111G A120C A145U C150G U176C it was 0.0545.
In the case of A111G A120G A145U C150G C169G U176G it was 0.00457; in that of A111G A120G A145U C150G C169G U176A, 0.00768.
Take A111G A120G A145U C150G C169G U176C: the reverse-splicing fitness was 0.00471.
Next, A111G A120C A145G C150U C169G U176C: 0.0192.
With A111G A120C A145G C150U C169G U176G, the reverse-splicing fitness is 0.00469.
Take A111G A120C A145G C150U C169G U176A: the reverse-splicing fitness came to 0.0195.
In the case of A111G A120G A145G C150U U176C it was 0.0905.
In the case of A111G A120G A145G C150U U176A it was 0.0693; in that of A111G A120G A145G C150U U176G, 0.00986; in that of A111G A120C C150G C169U, 0.0262.
Consider A111G A120C C150G C169A, for which the reverse-splicing fitness is 0.00889.
Next, A111G A120C C150G C169G: 0.0068.
In the case of A111G A120G A145C C150U C169A U176C it was 0.0168; in that of A111G A120G A145C C150U C169A U176G, 0.00411; in that of A111G A120G A145C C150U C169A U176A, 0.0171.
For A111G A120G A145G C150G C169G U176A, the reverse-splicing fitness stood at 0.00945.
Next, A111G A120G A145G C150G C169G U176G: 0.0054.
Take A111G A120G A145G C150G C169G U176C: the reverse-splicing fitness worked out at 0.0117.
